Measurements as given in US6410319.

Target: T1, CD20 (human) (UniProt P11836)
T1 sequence (looked up): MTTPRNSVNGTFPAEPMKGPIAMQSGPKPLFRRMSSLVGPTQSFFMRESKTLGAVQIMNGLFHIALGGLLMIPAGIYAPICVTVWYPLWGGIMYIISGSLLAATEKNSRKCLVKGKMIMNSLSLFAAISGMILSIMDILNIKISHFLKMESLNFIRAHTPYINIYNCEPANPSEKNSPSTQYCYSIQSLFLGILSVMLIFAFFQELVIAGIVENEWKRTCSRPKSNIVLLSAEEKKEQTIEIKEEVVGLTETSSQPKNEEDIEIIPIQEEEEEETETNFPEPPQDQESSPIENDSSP
Test: cell-based or functional assay

- decrease of IL-2 concentration in supernatants of Jurkat transfectants co-cultured with LCL: 60%
B1: anti-CD20 Leu-16 monoclonal antibody (antibody, from another filing, V domains shown)
VH: EVQLQQSGAELVKPGASVKMSCKASGYTFTSYNMHWVKQTPGQGLEWIGAIYPGNGDTSYNQKFKGKATLTADKSSSTAYMQLSSLTSEDSADYYCARSNYYGSSYWFFDVWGAGTTVTVSS
VL: DIVLTQSPAILSASPGEKVTMTCRASSSVNYMDWYQKKPGSSPKPWIYATSNLASGVPARFSGSGSGTSYSLTISRVEAEDAATYYCQQWSFNPPTFGGGTKLEIK
